Results: patent US20110091968A1 (KABUSHIKI KAISHA HAYASHIBARA SEIBUTSU KAGAKU KENKYUJO, published 2011)

Columns and labels:
Assay in all cases: Western blotting
[1] = target: T1, recombinant human IFNα subtype α1 (human, UniProt P0DY56 24-189)
T1 construct: also called rIFNα1; IFNα1
From the text: (§1) Proteins, contained in a part of the gel ranging from about 20 to about 29 kilo daltons (abbreviated as “kDa”, hereinafter) corresponding to the molecular weights of the proteins of IFNs, were transferred to a nitrocellulose membrane and soaked in “BlockAce”, a product name of a blocking solution to inhibit non-specific reaction commercialized by Dainippon Sumitomo Pharma, Co., Ltd., Tokyo, Japan. The resulting nitrocellulose membrane after the blocking treatment was soaked in a solution, containing 2 μg/ml of any of the nine monoclonal antibodies purified by using PROTEIN G SEPHAROSE, at ambient temperature for one hour, and washed with 50 mM Tris-HCl buffer (pH 7.5) containing 0.05% (v/v) tween 20 to remove excessive amounts of antibodies. The resulting nitrocellulose membrane was soaked in a solution containing an HRP labelled anti-mouse immunoglobulin or anti-rat immunoglobulin (both of which are commercialized by DakoCytomation, Denmark) at ambient temperature for one hour. The resulting membrane was washed with 50 mM Tris-HCl buffer (pH 7.5) containing 0.05% (v/v) tween 20 for 30 min and subjected to a color reaction by using commercialized “ECL western blotting detection reagent and Hyperfilm ECL”, a product name of a Western blotting detection kit commercialized by GE Healthcare Biosciences, Tokyo, Japan.

[2] = target: T2, recombinant human IFNα subtype α5 (human, UniProt P01569 24-189, limits assumed)
T2 construct: also called rIFNα5; IFNα5
From the text: as §1

[3] = target: T3, recombinant human IFNα subtype α6 (human, UniProt P05013 24-189, limits assumed)
T3 construct: also called rIFNα6; IFNα6
From the text: as §1

[4] = target: T4, recombinant human IFNα subtype α10 (human, UniProt P01566 24-189)
T4 construct: also called rIFNα10; IFNα10
From the text: as §1

[5] = target: human IFNβ (human, UniProt P01574 22-187)
[6] = target: T5, human IFNγ (human, UniProt P01579 24-166, limits assumed)
T5 sequence (looked up): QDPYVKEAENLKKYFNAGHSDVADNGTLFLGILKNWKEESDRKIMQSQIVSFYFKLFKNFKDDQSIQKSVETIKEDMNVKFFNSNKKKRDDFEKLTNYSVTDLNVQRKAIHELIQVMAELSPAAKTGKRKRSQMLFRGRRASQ

[7] = target: T6, human tumor necrosis factor (human, UniProt P01375 77-233)
T6 construct: also called human TNFα; TNFα

Measured: binding result

T4 sequence (P01566 24-189 limits assumed): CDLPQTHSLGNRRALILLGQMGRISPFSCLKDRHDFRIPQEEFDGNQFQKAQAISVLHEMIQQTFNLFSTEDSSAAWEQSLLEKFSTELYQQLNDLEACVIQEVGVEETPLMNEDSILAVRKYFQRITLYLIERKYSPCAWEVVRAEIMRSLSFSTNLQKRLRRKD
T2 sequence (P01569 24-189 limits assumed): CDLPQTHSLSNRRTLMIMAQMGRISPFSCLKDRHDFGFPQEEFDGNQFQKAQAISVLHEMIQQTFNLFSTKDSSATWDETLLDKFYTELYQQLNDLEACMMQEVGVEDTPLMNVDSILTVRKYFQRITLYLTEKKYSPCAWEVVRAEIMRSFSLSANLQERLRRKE
T3 sequence (P05013 24-189 limits assumed): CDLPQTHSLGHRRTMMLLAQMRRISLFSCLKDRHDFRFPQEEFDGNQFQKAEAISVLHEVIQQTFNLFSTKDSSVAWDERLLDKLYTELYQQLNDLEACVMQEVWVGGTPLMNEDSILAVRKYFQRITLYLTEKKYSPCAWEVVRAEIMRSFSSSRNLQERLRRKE
T1 sequence (P0DY56 entry or part of it limits assumed): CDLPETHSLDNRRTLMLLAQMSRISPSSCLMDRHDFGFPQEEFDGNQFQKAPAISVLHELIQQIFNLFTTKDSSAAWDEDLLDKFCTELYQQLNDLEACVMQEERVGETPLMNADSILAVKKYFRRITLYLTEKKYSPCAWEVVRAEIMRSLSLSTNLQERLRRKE
T6 sequence (P01375 77-233 limits assumed): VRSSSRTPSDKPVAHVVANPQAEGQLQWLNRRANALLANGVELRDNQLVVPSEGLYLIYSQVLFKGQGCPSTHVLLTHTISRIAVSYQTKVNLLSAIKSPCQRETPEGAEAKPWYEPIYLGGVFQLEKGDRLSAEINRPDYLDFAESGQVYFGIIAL
human IFNβ, sequence (P01574 22-187 limits assumed): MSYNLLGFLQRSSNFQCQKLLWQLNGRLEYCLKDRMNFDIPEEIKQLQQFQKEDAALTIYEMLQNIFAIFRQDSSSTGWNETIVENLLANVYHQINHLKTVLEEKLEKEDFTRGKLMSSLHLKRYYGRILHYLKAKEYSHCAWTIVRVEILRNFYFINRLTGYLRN

B1: α8Y36-2 mAb (antibody, IgG1, V domains shown)
VH: EVQLVESGGGLVQPGRSLKLSCAASGFTFSKYGMAWVRQAPTKGLEWVASISTGGYNTYYRDSVKGRFTISRDNAKNTQYLQMDSLRSEDTATYYCTRPPAFDHWGQGIMVTVSS
VL: DIKMTQSPSFLSASVGDRVTINCKASQNIDKYLNWYQQKLGKAPRLLMYNTNNLQTGIPSRFSGSGSTTDFTLTISSLQPEDVATYFCSHHSVRPYTFGAGTKLELK
notes: also called mAb-IFNα8Y36-2; FERM BP-11082
no binding: all assays above

B2: α8#139 mAb (antibody, IgG1, V domains shown)
VH: QVQLKQSGPGLVQPSQSLSITCTVSGFSLTSYGVHWIRQSPGKGLEWLGVIWSGGNTDYNAAFISRLSITKDNSKSQFFFKMNSLQAKDTAIYYCARGRGNYVPFTYWGQGTLVTVSA
VL: QIVLTQSPTIMSASLGERVTMTCTASSSVSSTYLHWYQQKPGSSPKLLIYSTSNLASGVPARFSGSGSGTSYSLTISNMEAEDAATYYCHQYHRSPPMTFGGGTKLEIK
notes: HRP-labelled where used as labelled antibody; also called FERM BP-11081
no binding: all assays above
